What was measured:
Test in all cases: ITC
[1] = target: F612A/D622A/R624A/K667E quadruple CBPKIX mutant (UniProt P45481 586-672, F612A | D622A | R624A | K667E)
[2] = target: KIX domain of CREB-binding protein (CBP), residues 586–672 (UniProt P45481 586-672)
[3] = target: Y650A/A654Q/Y658V triple CBPKIX mutant (UniProt P45481 586-672, Y650A | A654Q | Y658V)
Sequence of Y650A/A654Q/Y658V triple CBPKIX mutant (P45481 586-672 Y650A/A654Q/Y658V): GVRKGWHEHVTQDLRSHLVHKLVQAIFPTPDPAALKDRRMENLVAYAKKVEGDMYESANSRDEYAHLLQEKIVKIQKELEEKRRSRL

Sequence of KIX domain of CREB-binding protein (CBP), residues 586–672 (P45481 586-672): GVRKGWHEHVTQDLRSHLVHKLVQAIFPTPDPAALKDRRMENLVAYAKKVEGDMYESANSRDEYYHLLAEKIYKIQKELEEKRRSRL
Sequence of F612A/D622A/R624A/K667E quadruple CBPKIX mutant (P45481 586-672 F612A/D622A/R624A/K667E): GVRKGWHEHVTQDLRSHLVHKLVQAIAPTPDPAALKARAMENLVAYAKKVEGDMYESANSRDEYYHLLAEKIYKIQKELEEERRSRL

| Binder | fold decrease in affinity against wild-type CBPKIX [1] | Kd [2] | Kd [3] | fold decrease in affinity against wild-type p65TA1 [2] |
| --- | --- | --- | --- | --- |
| PGYPNGLLSGDEDFSSIADMDFSALLSQISS (peptide, UniProt Q04206 521-551, looked up) [transactivation domain 1 (TA1) of the p65 subunit of NF-κB, residues 521–551, L523Y] | ≥ 100 fold | 15 ± 3 µM | 13 ± 2 µM | – |
| PGYPNGLLSGDEDFSSIADMDASALLSQISS (peptide, UniProt Q04206 521-551, looked up) [F542A mutant of p65TA1] | – | – | – | ≥ 100 fold |
| PGYPNGLLSGDEDFSSIADMDFSAALSQISS (peptide, UniProt Q04206 521-551, looked up) [L545A mutant of p65TA1] | – | – | – | ~1.5 fold |
| PGYPNGLLSGDEDFSSIADMDFSALASQISS (peptide, UniProt Q04206 521-551, looked up) [L546A mutant of p65TA1] | – | – | – | ~1.5 fold |
